According to US20210188980A1 (SHANGHAI EPIMAB BIOTHERAPEUTICS, published 2021):
Values belong to the binder of their own block, whether it stands above or below them.

How the values were obtained:
[1] = target: T1, recombinant human LAG-3-his protein (Novoprotein) (human, UniProt P18627 23-450); assay: BLI Octet, Ab on AHC sensor, huLAG-3-his; test group 2
T1 construct: Bought; also called huLAG-3; not shown: His tag
T1 sequence (looked up): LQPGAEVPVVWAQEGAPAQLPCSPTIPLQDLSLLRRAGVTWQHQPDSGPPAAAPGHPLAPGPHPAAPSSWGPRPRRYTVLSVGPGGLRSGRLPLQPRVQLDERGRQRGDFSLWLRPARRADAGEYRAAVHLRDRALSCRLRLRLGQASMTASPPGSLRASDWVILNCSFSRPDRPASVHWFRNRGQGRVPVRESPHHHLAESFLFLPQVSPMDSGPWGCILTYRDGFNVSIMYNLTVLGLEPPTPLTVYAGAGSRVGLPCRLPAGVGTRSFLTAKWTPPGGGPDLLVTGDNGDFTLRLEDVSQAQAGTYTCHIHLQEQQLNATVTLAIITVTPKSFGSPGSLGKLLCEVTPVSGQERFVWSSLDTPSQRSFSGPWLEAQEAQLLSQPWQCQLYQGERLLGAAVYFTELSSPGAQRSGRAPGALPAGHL
Procedure: (§1) All 18 humanized antibodies (Table 34) and a chimeric antibody having the parental murine VH and VL domains (mAb747c) were ranked by dissociation rate constant (koff). Briefly, antibodies were characterized for affinities and binding kinetics by Octet®RED96 biolayer interferometry (Pall ForteBio LLC). Antibodies were captured by Anti-hIgG Fc Capture (AHC) Biosensors (Pall) at a concentration of 100 nM for 30 seconds. Sensors were then dipped into running buffer (1× pH7.2 PBS, 0.05% Tween 20, 0.1% BSA) for 60 seconds to check baseline. Binding was measured by dipping sensors into a single concentration of recombinant human LAG-3-his protein (Novoprotein). Dissociation was followed by dipping sensors into running buffer for 1200 seconds. The association and dissociation curves were fitted to a 1:1 Langmuir binding model using FortéBio Data Analysis software (Pall). In each test group, the off-rates of antibodies were able to be compared with that of mAb747c. The off-rate ratios were calculated by the off-rate of antibody to that of mAb747c of its group and were compared all together. The lower the ratio was, the higher was the affinity of the antibody.

[2] = target: T1, recombinant human LAG-3-his protein …; assay: BLI Octet, Ab on AHC sensor, huLAG-3-his analyte
Procedure: as §1, with “9” for “18”, “25)” for “34)”, “Octet RED96” for “Octet®RED96”, “FortéBio” for “ForteBio”, “Anti-HIgG” for “Anti-hIgG”, “(Pall).” for “(Pall). In each test group, the off-rates of antibodies were able to be compared with that of mAb747c. The off-rate ratios were calculated by the off-rate of antibody to that of mAb747c of its group and were compared all together. The lower the ratio was, the higher was the affinity of the antibody.”

[3] = target: T1, recombinant human LAG-3-his protein …; assay: BLI Octet, Ab on AHC sensor, huLAG-3-his; test group 3
Procedure: as §1, with “9” for “18”, “25)” for “34)”, “Octet RED96” for “Octet®RED96”, “FortéBio” for “ForteBio”, “Anti-HIgG” for “Anti-hIgG”, “(Pall).” for “(Pall). In each test group, the off-rates of antibodies were able to be compared with that of mAb747c. The off-rate ratios were calculated by the off-rate of antibody to that of mAb747c of its group and were compared all together. The lower the ratio was, the higher was the affinity of the antibody.”
(§2) All 13 humanized antibodies (Table 39) and chimeric anti-LAG-3 antibody mAb747c having the parental murine VH and VL domains were ranked by dissociation rate constant (koff) in the same manner described in Example 9.1 supra. In each test group, the off-rates of antibodies were able to be compared with that of mAb747c. The off-rate ratios were calculated by the off-rate of antibody to that of mAb747c of its group and were compared all together. The lower the ratio was, the higher was the affinity of the antibody.

[4] = target: T1, recombinant human LAG-3-his protein …; assay: BLI Octet, Ab on AHC sensor, huLAG-3-his; test group 1
Procedure: as §1, with “9” for “18”, “25)” for “34)”, “Octet RED96” for “Octet®RED96”, “FortéBio” for “ForteBio”, “Anti-HIgG” for “Anti-hIgG”, “(Pall).” for “(Pall). In each test group, the off-rates of antibodies were able to be compared with that of mAb747c. The off-rate ratios were calculated by the off-rate of antibody to that of mAb747c of its group and were compared all together. The lower the ratio was, the higher was the affinity of the antibody.”
as §2

[5] = target: T1, recombinant human LAG-3-his protein …; assay: as above; remark: listed apart in the source
Procedure: as §1, with “9” for “18”, “25)” for “34)”, “Octet RED96” for “Octet®RED96”, “FortéBio” for “ForteBio”, “Anti-HIgG” for “Anti-hIgG”, “(Pall).” for “(Pall). In each test group, the off-rates of antibodies were able to be compared with that of mAb747c. The off-rate ratios were calculated by the off-rate of antibody to that of mAb747c of its group and were compared all together. The lower the ratio was, the higher was the affinity of the antibody.”
(§3) The seven Fab clones were converted to full IgG proteins. Briefly, the VH and VL genes were produced synthetically and then cloned into vectors containing coding sequences for the human IgG1 and human kappa constant domains, respectively. The heavy chain and cognate light chain plasmids were co-transfected into HEK 293E cells, individually. After approximately six days of post-transfection cell culture, the supernatants were harvested and subjected to Protein A affinity chromatography. The affinity of purified antibodies was ranked by Octet® RED96 biolayer interferometry (see, Example 9.1, supra).

[6] = target: T1, recombinant human LAG-3-his protein …; assay: BLI Octet, Ab on AHC sensor, huLAG-3-his; test group 2; remark: listed apart in the source
Procedure: as §1, with “9” for “18”, “25)” for “34)”, “Octet RED96” for “Octet®RED96”, “FortéBio” for “ForteBio”, “Anti-HIgG” for “Anti-hIgG”, “(Pall).” for “(Pall). In each test group, the off-rates of antibodies were able to be compared with that of mAb747c. The off-rate ratios were calculated by the off-rate of antibody to that of mAb747c of its group and were compared all together. The lower the ratio was, the higher was the affinity of the antibody.”
as §2

[7] = target: T1, recombinant human LAG-3-his protein …; assay: BLI Octet, Ab on AHC sensor, huLAG-3-his; test group 1; remark: listed apart in the source
Procedure: as §1

[8] = target: T1, recombinant human LAG-3-his protein …; assay: BLI Octet, Ab on AHC sensor, huLAG-3-his; test group 4
Procedure: as §1

[9] = target: T1, recombinant human LAG-3-his protein …; assay: BLI Octet, Ab on AHC sensor, huLAG-3-his; test group 3; remark: listed apart in the source
Procedure: as §1

[10] = target: T1, recombinant human LAG-3-his protein …; assay: BLI Octet, Ab on AHC sensor, huLAG-3-his; test group 2; remark: listed apart in the source
Procedure: as §1, with “9” for “18”, “25)” for “34)”, “Octet RED96” for “Octet®RED96”, “FortéBio” for “ForteBio”, “Anti-HIgG” for “Anti-hIgG”, “(Pall).” for “(Pall). In each test group, the off-rates of antibodies were able to be compared with that of mAb747c. The off-rate ratios were calculated by the off-rate of antibody to that of mAb747c of its group and were compared all together. The lower the ratio was, the higher was the affinity of the antibody.”
as §3

[11] = target: T2, human LAG-3 ECD/Fc fusion protein (human); assay: SPR Biacore, HuPD-1 ECD/Fc and HuLAG-3 ECD/Fc both on chip, Ab analyte
T2 construct: also called HuLAG-3 ECD/Fc

[12] = target: T2, human LAG-3 ECD/Fc fusion protein; assay: SPR Biacore, HuLAG-3 ECD/Fc on chip, Ab analyte
[13] = target: T3, human PD-1 ECD/Fc fusion protein (human); assay: SPR Biacore, HuPD-1 ECD/Fc and HuLAG-3 ECD/Fc both on chip, Ab analyte
T3 construct: also called huPD-1/Fc; HuPD-1 ECD/Fc
T3 sequence (chain, as listed by the source limits assumed): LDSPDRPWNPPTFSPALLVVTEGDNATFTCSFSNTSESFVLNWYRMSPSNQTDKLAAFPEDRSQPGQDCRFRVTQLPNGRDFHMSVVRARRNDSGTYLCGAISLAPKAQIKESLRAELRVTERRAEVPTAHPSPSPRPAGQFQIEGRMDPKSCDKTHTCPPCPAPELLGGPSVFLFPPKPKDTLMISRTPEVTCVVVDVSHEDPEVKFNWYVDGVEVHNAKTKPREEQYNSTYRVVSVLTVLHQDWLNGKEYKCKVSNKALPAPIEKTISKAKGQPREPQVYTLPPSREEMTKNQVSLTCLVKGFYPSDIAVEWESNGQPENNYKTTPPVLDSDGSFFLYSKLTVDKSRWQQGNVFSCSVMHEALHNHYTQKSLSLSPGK

[14] = target: T4, human PD-1 expressed on cells (human, UniProt Q15116 25-288); assay: cell RBA FACS, CHO-K1-huPD1; competitor biotin-PD-L2/Fc
T4 construct: whole, on cells; also called CHO-K1/huPD-1; CHO-K1-hPD-1 cells
T4 sequence (Q15116 25-288): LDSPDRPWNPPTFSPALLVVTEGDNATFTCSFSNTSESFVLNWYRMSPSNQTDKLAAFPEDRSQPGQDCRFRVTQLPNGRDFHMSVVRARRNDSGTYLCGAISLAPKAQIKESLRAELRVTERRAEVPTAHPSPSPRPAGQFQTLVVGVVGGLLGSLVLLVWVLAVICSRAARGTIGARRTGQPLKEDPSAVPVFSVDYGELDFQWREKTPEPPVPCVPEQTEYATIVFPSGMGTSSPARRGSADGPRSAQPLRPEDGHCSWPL
Procedure: (§4) All 15 humanized antibodies and the chimeric antibody (mAb709c) were characterized by binding ELISA and cell-based RBA. For cell-based RBA, 2×10⁵ cells/well of CHO-K1-huPD1 cells were added to a pre-blocked 96-well round-bottomed plate and after washing, 50 μl antibodies with diluted concentration ranging from 0.064 nM to 200 nM were added to each well. Next, 50 μl of 60 μg/ml biotinylated PD-L1/Fc or biotinylated PD-L2/Fc protein were added. After gentle mixing and incubation at 4° C., the cells were washed and stained by Alexa Fluor™ 488 streptavidin solution (1:1000, ThermoFisher Scientific; Cat. No. S32354). Signals were readout by FACS and curves were fitted by GraphPad software. […] The association and dissociation rate constants, k (M⁻¹ s⁻¹) and koff(s⁻¹), respectively, were determined by making kinetic binding measurements at five different concentrations of human PD-1-His protein at a continuous flow rate of 30 μl/min. The equilibrium dissociation constant KD (M) of the reaction between antibodies and related target proteins was calculated from the kinetic rate constants using the formula KD=koff/kₒₙ. HumAb709-8 had minimal back-mutation(s) while maintaining to the greatest extent the affinity of the parental variable domains on chimeric mAb709c.

[15] = target: T4, human PD-1 expressed on cells; assay: cell RBA FACS, CHO-K1-huPD1; competitor biotin-PD-L1/Fc
Procedure: as §4

human PD-1-His protein = target: T5, human PD-1-His protein (human, UniProt Q15116 25-167, limits assumed); assay: SPR Biacore, Ab captured, huPD-1-His analyte
T5 construct: also called huPD-1; not shown: His tag
T5 sequence (Q15116 25-167 limits assumed): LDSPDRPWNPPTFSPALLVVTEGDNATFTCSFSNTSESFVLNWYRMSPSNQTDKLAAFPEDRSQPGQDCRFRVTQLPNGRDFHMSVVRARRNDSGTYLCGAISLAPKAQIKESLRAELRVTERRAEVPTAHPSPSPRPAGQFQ
Procedure: as §4

[16] = target: T3, human PD-1 ECD/Fc fusion protein; assay: SPR Biacore, HuPD-1 ECD/Fc on chip, Ab analyte

koff [1]: 0.00135 s⁻¹ | off-rate ratio to that of mAb747c [1]: 100% | koff [2]: 0.000377 s⁻¹ | koff [3]: 0.000631 s⁻¹ | off-rate ratio to that of mAb747c [3]: 100% | koff [4]: 0.000615 s⁻¹ | off-rate ratio to that of mAb747c [4]: 100% | koff [5]: 0.0015 s⁻¹ | off-rate ratio to that of mAb747c [5]: 100% | koff [6]: 0.000676 s⁻¹ | off-rate ratio to that of mAb747c [6]: 100% | koff [7]: 0.00136 s⁻¹ | off-rate ratio to that of mAb747c [7]: 100% | koff [8]: 0.00053 s⁻¹ | off-rate ratio to that of mAb747c [8]: 100% | koff [9]: 0.00123 s⁻¹ | off-rate ratio to that of mAb747c [9]: 100% | koff [10]: 0.00163 s⁻¹ | off-rate ratio to that of mAb747c [10]: 100%
B1: mAb747c (antibody, V domains shown)
VH: EVQLQQSGAELVRPGASVKLSCTASDFNIKDDYMHWVKQRPEQGLDWIGWIVPENGNTEYASKFQGKATITADTSSNTAYLQLSSLTSEDTAVYYCTVYGDYWGQGTTLTVSS
VL: DIQMTQSPSSLSASLGERVSLNCRASQEISGYLSWLQQKPDGTIKRLIYAASTLDSGVPKRFSGSRSGSDYSLTISSLESEDFAAYYCLQYASYPLTFGAGTKLELK
notes: also called mAb717c

Kd [11]: 16.2 nM | koff [11]: 0.000154 s⁻¹ | kon [11]: 9510 M⁻¹ s⁻¹ | Kd [12]: 32.5 nM | koff [12]: 0.000181 s⁻¹ | kon [12]: 5580 M⁻¹ s⁻¹
B2: mAb746c (antibody, V domains shown)
VH: EVQLQQSGAELVRPGASVKLSCTASDFNIKDDYMHWVKQRPEQGLDWIGWIVPENGNTEYASKFQGKATITADTSSNTAYLQLSSLTSEDTAVYYCTVYGDYWGQGTTLTVSS
VL: DIQMTQSPSSLSASLGERVSLNCRASQEISGYLSWLQQKSDGTIKRLIYAASTLDSGVPKRFSGSRSGSDYSLTISSLESEDFADYYCLQYASYPLTFGAGTKLELK

Kd [13]: 0.0337 nM | koff [13]: 9.72e-06 s⁻¹ | kon [13]: 288000 M⁻¹ s⁻¹ | IC50 [14]: 0.56 nM | IC50 [15]: 0.62 nM | Kd (human PD-1-His protein): 0.567 nM | koff (human PD-1-His protein): 6.88e-05 s⁻¹ | kon (human PD-1-His protein): 121000 M⁻¹ s⁻¹ | Kd [16]: 0.035 nM | koff [16]: 8.82e-06 s⁻¹ | kon [16]: 252000 M⁻¹ s⁻¹
B3: mAb709c (antibody, V domains shown)
VH: EVKLVESGGGLVKPGGSLKLSCAASGFTFSFYTMSWVRQTPEKRLEWVATISGGGRDTYYPDSVKGRFTISRDNAKNTLYLHMSSLRSEDTALYYCAGQGGNYLFAYWGQGTLVTVSA
VL: DIVMTQSHKFMSTSVGDSVTITCKASQDVNTVVAWYQQKPGQSLKVLISWASTRHTGVPARFTGSGSGTDYTLTISSVQAEDLALYYCQQHYTTPYTFGGGTQLEIK
notes: also called HumAb709c
